± gives the uncertainty stated by the source.
Test: self-splicing fitness, log relative to wild type (ln ratio); higher = more splicing; Tetrahymena group I intron in knt gene, E. coli kanamycin selection, DiMSum; sequences stand for … in CUCUCU…GGAGGGAAAAGUUAUCAGGCAUGCACCUGGUAGCUAGUCUUUAAACCAAUAGAUUGCAUCGGUUUAAAAGGCAAGACCGUCAAAUUGCGGGAAAGGGGUCAACAGCCGUUCAGUACCAAGUCUCAGGGGAAACUUUGAGAUGGCCUUGCAAAGGGUAUGGUAAUAAGCUGACGGACAUGGUCCUAACCACGCAGCCAAGUCCUAAGUCAACAGAUCUUCUGUUGAUAUGGAUGCAGUUCACAGACUAAAUGUCGGUCGGGGAAGAUGUAUUCUUCUCAUAAGAUAUAGUCGGACCUCUCCUUAAUGGGAGCUAGCGGAUGAAGUGAUGCAACACUGGAGCCGCUGGGAACUAAUUUGUAUGCGAAAGUAUAUUGAUUAGUUUUGGAGUACUCGUGGUCG
Summary of the method: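 Pooled colonies went to amplicon sequencing on an Illumina HiSeq 2500 after six replicate transformations. The plates were LB agar with 100 μg/mL carbenicillin, 50 μM IPTG and 0.2% rhamnose, with or without 25 μg/mL kanamycin, incubated overnight at 37°C or 30°C. The E. coli BL21(DE3) library had all eight P1ex-region intron nucleotides randomised, the intron placed in the knt kanamycin-resistance gene on pET-22b(+). DiMSum fitness is the error-weighted combination of replicate fold changes, kanamycin against none, normalised to wild type.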

Row | Sequence | self-splicing fitness (ln) (30 °C) | self-splicing fitness (ln) (37 °C)
1 | AACCAGCAAUAUUACGCUAA | -1.36 ± 0.068 | -0.61 ± 0.07
2 | AAUGAGCAAUAUUACGGCUA | -2.14 ± 0.24 | -0.372 ± 0.16
3 | GUGUAGCAAUAUUACGCCAC |  | -1.07 ± 0.48
4 | AGUCAGCAAUAUUACGCGAU | -3.56 ± 0.24 | -1.01 ± 0.14
5 | CUUAAGCAAUAUUACGCGGG | -2.83 ± 0.2 | -2.92 ± 0.31
6 | GGAUAGCAAUAUUACGGGCU | -2.29 ± 0.14 | -0.442 ± 0.12
7 | CUUUAGCAAUAUUACGGAUU |  | -1.57 ± 0.41
8 | AGACAGCAAUAUUACGGCCU | -1.2 ± 0.085 | -0.234 ± 0.09
9 | ACAAAGCAAUAUUACGCCUU | -2.01 ± 0.075 | -0.625 ± 0.087
10 | CAGGAGCAAUAUUACGUGCA | -3.17 ± 0.21 | -2.6 ± 0.34
11 | UGAGAGCAAUAUUACGUGCA | -1.53 ± 0.087 | -0.611 ± 0.1
12 | CUCAAGCAAUAUUACGGAGA | -2.83 ± 0.19 | -1.98 ± 0.15
13 | CAUAAGCAAUAUUACGCACC | -2.33 ± 0.4 | -0.0667 ± 0.48
14 | UGUAAGCAAUAUUACGAUGG | -2.9 ± 0.13 | -0.756 ± 0.12
15 | UUCAAGCAAUAUUACGCAAU | -2.21 ± 0.19 | -1.99 ± 0.21
16 | AACUAGCAAUAUUACGGGGA | -1.3 ± 0.12 | -0.982 ± 0.13
17 | CCAUAGCAAUAUUACGUAAU | -3.14 ± 0.15 | -3.15 ± 0.23
18 | ACUCAGCAAUAUUACGACUU | -0.301 ± 0.054 | 0.0543 ± 0.073
19 | UCCUAGCAAUAUUACGUUUU | -3.41 ± 0.21 | -2.69 ± 0.2
20 | UUCUAGCAAUAUUACGCCCU | -2.51 ± 0.27 | -0.693 ± 0.19
21 | GUAAAGCAAUAUUACGACUG | -2.11 ± 0.2 | -1.48 ± 0.28
22 | CAGGAGCAAUAUUACGGUAU | -3.42 ± 0.15 | -2.86 ± 0.16
23 | UAGCAGCAAUAUUACGCUCU | -1.27 ± 0.087 | -1.04 ± 0.088
24 | UGUGAGCAAUAUUACGAAAA | -1.47 ± 0.35 | -1.31 ± 0.46
25 | AACCAGCAAUAUUACGUUAC | -2.93 ± 0.14 | -2.52 ± 0.17
26 | UCUAAGCAAUAUUACGUGUU | -3.44 ± 0.14 | -2.81 ± 0.13

Row | Sequence | self-splicing fitness (ln) (30 °C) | self-splicing fitness (ln) (37 °C)
27 | AGGUAGCAAUAUUACGCCCU | -3.56 ± 0.048 | -2.45 ± 0.058
28 | CUACAGCAAUAUUACGGAAG | -1.46 ± 0.085 | -0.751 ± 0.11
29 | AAUAAGCAAUAUUACGCCCA | 0.0107 ± 0.1 | -0.447 ± 0.15
30 | ACUUAGCAAUAUUACGCUCU | -0.715 ± 0.13 | -0.397 ± 0.14
31 | ACAGAGCAAUAUUACGGGAU | -3.52 ± 0.11 | -3.03 ± 0.15
32 | GGCCAGCAAUAUUACGCGCA | -0.425 ± 0.1 | 0.666 ± 0.13
33 | UAGAAGCAAUAUUACGAGAU | -3.64 ± 0.33 | -2.16 ± 0.23
34 | UCCCAGCAAUAUUACGAAGC | -3.98 ± 0.42 | -1.71 ± 0.24
35 | GUAAAGCAAUAUUACGAACA | -0.969 ± 0.15 | 0.323 ± 0.16
36 | AGAUAGCAAUAUUACGUAGG | -3.49 ± 0.17 | -1.41 ± 0.18
37 | CGAUAGCAAUAUUACGGCAA | -2.65 ± 0.27 | -1.79 ± 0.22
38 | GCCUAGCAAUAUUACGCAGC | -4.41 ± 0.36 | -1.52 ± 0.19
39 | AGACAGCAAUAUUACGAACU | -0.675 ± 0.076 | 0.326 ± 0.096
40 | AGUAAGCAAUAUUACGGAGC | -2.93 ± 0.37 | 
41 | CUACAGCAAUAUUACGUAAU | -3.8 ± 0.19 | -2.84 ± 0.18
42 | GAGGAGCAAUAUUACGAGAC | -2.67 ± 0.22 | 
43 | CACGAGCAAUAUUACGUAGU | -3.22 ± 0.17 | -2.73 ± 0.26
44 | GACCAGCAAUAUUACGCACG | -0.677 ± 0.067 | -0.895 ± 0.095
45 | UUUCAGCAAUAUUACGCUAG | -0.789 ± 0.084 | -0.5 ± 0.1
46 | UAGAAGCAAUAUUACGCGCC | -3.18 ± 0.24 | -0.65 ± 0.13
47 | ACUUAGCAAUAUUACGGGGU | -2.71 ± 0.16 | -2.73 ± 0.27
48 | GGGCAGCAAUAUUACGCUUC |  | -1.85 ± 0.17
49 | CUUCAGCAAUAUUACGUACG | -0.327 ± 0.062 | 0.542 ± 0.088
50 | ACGUAGCAAUAUUACGUAGG | -3.76 ± 0.18 | -1.73 ± 0.13
51 | AGUUAGCAAUAUUACGCCUU | -0.974 ± 0.23 | -0.383 ± 0.33
52 | CACGAGCAAUAUUACGUUUG | -3.57 ± 0.13 | -2.17 ± 0.13

Row | Sequence | self-splicing fitness (ln) (30 °C) | self-splicing fitness (ln) (37 °C)
53 | CUCUAGCAAUAUUACGAGCG | -2.79 ± 0.14 | -2.73 ± 0.16
54 | UAAUAGCAAUAUUACGUAUA | -1.82 ± 0.17 | -1.17 ± 0.17
55 | GAAGAGCAAUAUUACGGACA | -1.14 ± 0.24 | 0.342 ± 0.24
56 | AUCGAGCAAUAUUACGUUCG | -3.25 ± 0.2 | -2.52 ± 0.24
57 | GGGGAGCAAUAUUACGUUUC | -2.65 ± 0.2 | -2.64 ± 0.29
58 | UAAGAGCAAUAUUACGGACU |  | -2.75 ± 0.41
59 | UGCAAGCAAUAUUACGGGCU | -1.12 ± 0.11 | -1.48 ± 0.14
60 | AGCGAGCAAUAUUACGAUAG | -3.64 ± 0.43 | -1.76 ± 0.35
61 | CCGCAGCAAUAUUACGACCA | -3.34 ± 0.25 | -1.95 ± 0.25
62 | GAGCAGCAAUAUUACGCAAG | -1.36 ± 0.16 | -0.218 ± 0.3
63 | ACCUAGCAAUAUUACGCGUA | -2.46 ± 0.17 | -1.22 ± 0.11
64 | CACAAGCAAUAUUACGUCAA | -3.14 ± 0.17 | -2.6 ± 0.2
65 | GUGUAGCAAUAUUACGGUGA | -1.45 ± 0.11 | -0.916 ± 0.14
66 | GAUAAGCAAUAUUACGCGGA | -3.54 ± 0.22 | -0.761 ± 0.12
67 | ACCUAGCAAUAUUACGUAGU | -2.07 ± 0.09 | -0.568 ± 0.081
68 | UCGAAGCAAUAUUACGUAAU | -3.88 ± 0.15 | -1.62 ± 0.12
69 | AUACAGCAAUAUUACGAGGA | -3.26 ± 0.19 | -0.911 ± 0.12
70 | GUUCAGCAAUAUUACGAUUC | 0.118 ± 0.095 | 0.523 ± 0.11
71 | UCCUAGCAAUAUUACGCGGG | -3.2 ± 0.1 | -2.66 ± 0.14
72 | UGAUAGCAAUAUUACGGGCU | -2.42 ± 0.13 | -2.11 ± 0.14
73 | AUCAAGCAAUAUUACGCCGU | -1.19 ± 0.087 | -0.429 ± 0.1
74 | UUCGAGCAAUAUUACGUCGA |  | -1.49 ± 0.19
75 | GCUCAGCAAUAUUACGAGUC | -4.08 ± 0.26 | 
76 | UGGCAGCAAUAUUACGAGUA | -1.75 ± 0.15 | -1.46 ± 0.13
77 | AAGAAGCAAUAUUACGAGGU | -3.38 ± 0.33 | -2.42 ± 0.42

Source: the supplement of paper PMC7877785
